We go through 4 molecules from patent US20260224701A1 (University of Texas, published 2026).

Experiment in all cases: biolayer interferometry (Octet), antibody captured on the probe, extracellular domain in solution
In general terms: In BLI a coated tip is dipped into the sample, and binding shifts an interference pattern.

The target in assay [1] is T1, human 2Ig-B7-H3 extracellular domain (human, UniProt Q5ZPR3 29-466).
T1 chain: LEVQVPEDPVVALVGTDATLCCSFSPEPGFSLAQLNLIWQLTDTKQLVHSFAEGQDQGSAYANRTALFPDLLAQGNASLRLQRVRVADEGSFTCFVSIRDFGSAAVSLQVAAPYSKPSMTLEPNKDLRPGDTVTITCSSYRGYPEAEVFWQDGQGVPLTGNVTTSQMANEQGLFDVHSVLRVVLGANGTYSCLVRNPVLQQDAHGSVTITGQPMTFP

Assay [2] deals with T2, Cynomolgus 4Ig-B7-H3 extracellular domain (cynomolgus).
T2 construct: extracellular domain; Bought protein; also called Cynomolgus 4Ig-B7H-3 protein
The method, then: (§1) The extracellular domains of the indicated 4Ig-B7-H3 and 2Ig-B7-H3 proteins were purchased from R&D systems. All proteins were validated by the vendor to be both pure and functional. KD values were determined utilizing capture biolayer interferometry (Octet, Molecular Devices) in “affinity” mode, wherein the […] antibody was captured on the tip of the probe and placed into solutions containing different concentrations of target extracellular domain.

In assay [3] the target is T3, Porcine 4Ig-B7-H3 extracellular domain (porcine, UniProt A0A287AJ27 27-466).
T3 construct: extracellular domain; Bought protein; also called Porcine 4Ig-B7H-3 protein
The method, then:
as §1

One may read the Kd as the free concentration of one partner at which half of the binding sites on the other are occupied at equilibrium, for simple one-to-one binding.

Residue numbers refer to the chain shown, from its start.

B1: MIL33B chimeric antibody (full-length IgG) (antibody, V domains shown)
VH: EVQLQQSGPELVKPGASVKMSCKASGYTFTSYVMHWVRQSPGQGLEGIGYINSYSDGTKYNEKFKGKATLTSDKSSSTAYMELSGLTSEDSAVYYCARWGGLGNGAMDYWGQGTSVTVSS
VL: QIVLTQSPAIMSASPGEKVTMTCSVSSSVNYMHWYQQKSGTSPKRWIYDTSKLASGVPARFSASGSGTSYSLTISSMEAEDAATYYCQQWTSNPLTFGAGTKLELKR
notes: also called Chimeric VH + VL; MIL33B-chimera
In assay [1], B1 came in with a Kd of 13.2 nM.

B2: MIL33B-H1-hIgG1 (antibody, V domains shown)
VH: QVQLVQSGAEVKKPGASVKVSCKASGYTFTSYVMHWVRQAPGQRLEWMGYINSYSDGTKYNEKFKGRVTITSDTSASTAYMELSSLRSEDTAVYYCARWGGLGNGAMDYWGQGTLVTVSS
VL: EIVLTQSPATLSLSPGERATLSCSVSSSVNYMHWYQQKPGQAPRRLIYDTSKLASGIPARFSGSGSGTDYTLTISSLEPEDFAVYYCQQWTSNPLTFGQGTKLEIK
notes: also called AHF15945; AHF 15945
As to B2, the Kd in assay [1] turned out to be 21.6 nM.

B3: MIL33B-H2-hIgG1 (antibody, V domains shown)
VH: B2 VH with V68A, S72R
VL: B2 VL
notes: also called AHF15938; AHF 15938
Regarding B3, in assay [1], the Kd turned out to be 14 nM.

B4: MIL33B-H3-hIgG1 (antibody, V domains shown)
VH: B2 VH with S72R
VL: B2 VL
notes: also called hMIL33B-H3; humanized MIL33B-H3
Regarding B4, the figures for the dissociation constant Kd in assay [2], in assay [3] and in assay [1] were 0.28 nM, 0.559 nM and 43.5 nM, respectively.
